According to patent publication US20130244255A1, “ANTIBODIES DIRECTED TO GPNMB AND USES THEREOF” (priority 2006, published 2013):

T1: cell membrane-bound GPNMB protein (Homo sapiens, UniProt Q14956)
T1 construct: endogenous in cells; host or cells: UACC-62 and a panel of melanoma lines (A5)
T1 sequence (Q14956 23-572): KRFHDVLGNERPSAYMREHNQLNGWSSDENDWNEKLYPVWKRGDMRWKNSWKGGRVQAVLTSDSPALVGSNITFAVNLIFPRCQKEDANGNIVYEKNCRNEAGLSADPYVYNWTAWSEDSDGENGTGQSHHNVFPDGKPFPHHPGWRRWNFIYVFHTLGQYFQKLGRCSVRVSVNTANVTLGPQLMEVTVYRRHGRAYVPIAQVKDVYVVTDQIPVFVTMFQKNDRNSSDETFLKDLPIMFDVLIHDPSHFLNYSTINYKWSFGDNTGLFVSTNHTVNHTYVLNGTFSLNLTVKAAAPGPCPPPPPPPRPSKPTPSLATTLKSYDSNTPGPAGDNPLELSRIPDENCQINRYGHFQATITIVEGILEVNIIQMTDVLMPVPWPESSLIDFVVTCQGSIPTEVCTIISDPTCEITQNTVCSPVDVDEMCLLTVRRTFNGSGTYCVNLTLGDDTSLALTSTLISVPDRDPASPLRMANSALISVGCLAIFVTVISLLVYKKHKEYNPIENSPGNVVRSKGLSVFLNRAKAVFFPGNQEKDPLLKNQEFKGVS

T2: GPNMB (Homo sapiens, UniProt Q14956)
T2 construct: we cloned the human CG56972 extracellular domain (ECD; aa 23-480); made in house; host or cells: HEK 293 cells
T2 sequence (Q14956 23-492): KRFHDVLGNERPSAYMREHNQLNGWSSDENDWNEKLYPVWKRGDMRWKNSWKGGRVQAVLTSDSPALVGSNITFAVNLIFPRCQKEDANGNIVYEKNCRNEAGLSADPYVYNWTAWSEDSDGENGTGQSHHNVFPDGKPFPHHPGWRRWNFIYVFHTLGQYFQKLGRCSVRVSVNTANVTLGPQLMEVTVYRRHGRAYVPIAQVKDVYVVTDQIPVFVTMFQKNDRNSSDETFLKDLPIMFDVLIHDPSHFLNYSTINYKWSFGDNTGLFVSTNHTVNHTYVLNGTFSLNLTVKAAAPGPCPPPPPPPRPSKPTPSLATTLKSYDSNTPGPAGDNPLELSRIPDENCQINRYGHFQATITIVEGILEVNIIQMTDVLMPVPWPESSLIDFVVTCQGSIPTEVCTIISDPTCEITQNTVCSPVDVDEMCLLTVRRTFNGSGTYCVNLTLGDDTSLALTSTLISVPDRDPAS

T3: GPNMB (Homo sapiens, UniProt Q14956)
T3 construct: Tissue sections (5 μm) were cut from formalin fixed and paraffin embedded tissue samples; tissue IMPATH, Los Angeles, Calif; host or cells: normal and tumor human tissue microarrays (melanoma, lung and other carcinomas, skin)
T3 sequence (Q14956 23-572): T1 sequence (Q14956 23-572)

B1: 2.22.1: human anti-GPNMB antibody; VH SEQ ID NO: 164, VL SEQ ID NO: 173 (antibody, listed as Homo sapiens, V domains shown)
VH: QVQLEQSGPGLVKPSQNLSLTCTVSGGSISSGGYFWSWIRQHPGKGLEWIGYIYYSGNTYYNPSLKSRVTISVDTSKNQFSLKLSSVTAADTAVYYCARDYYYDTSGFSYRYDWYYGMDVWGQGTTVTVSSA
VL: DIQLTQSPSSLSASVGDRVTITCRASQGIRNDLGWYQQKPGKAPKRLIYAASSLQNGVPSRFSGSGSGTEFTLTISSLQPEDFATYYCLQHNTYPAFGQGTKVEIKR
B2: 1.2.2: human anti-GPNMB antibody; VH SEQ ID NO: 38, VL SEQ ID NO: 47 (antibody, listed as Homo sapiens, V domains shown)
VH: ITLKESGPTLVKPTQTLTLTCTFSGFSLSAGGVGVGWIRQPPGKALEWLALIYWNDDKRYSPSLRSRLTITKDTSKNQVVLTITNMDPVDTATYYCAHSHYDYDWGSYFDYWGQGTLVTVSSA
VL: DIVMTQTPLSLPVTPGEPASISCRSSQSLLDSDDGNTYLDWYLQKPGQSPQLLIYTLSYRASGVPDRFSGSGSGTDFTLNISRVEAEDVGVYYCMQRIEFPITFGQGTRLEIKR
B3: 1.7.1: human anti-GPNMB antibody; VH SEQ ID NO: 56, VL SEQ ID NO: 65 (antibody, listed as Homo sapiens, V domains shown)
VH: QVQLQESGPGLVKPSQTLSLTCTVSGGSISSANYYWTWIRQHPGKGLEWIGYIYYSGSTYCNPSLKSRVIISVDTSKNQFSLKLSSVTAADTAVYYCARGYNWNYFDYWGQGTLVTVSSA
VL: DIVMTQSPATLSVSPGERATLSCRASQSVSSNLAWYQERPGQAPRLLIYGASTRATGIPARFSGSGSGTEFTLTISSLQSEDFAVYYCQQYNKWPPWTFGQGTKVEIER
B4: 1.10.2: human anti-GPNMB antibody; VH SEQ ID NO: 2, VL SEQ ID NO: 11 (antibody, listed as Homo sapiens, V domains shown)
VH: QVQLQESGPGLVKPSETLSLTCTVSGDSISNYYWSWIRQPPGKGLEWIGYFYYSGSTNYNPSLKSRVTISVDTSKNQFSLKLSSVTAADTAVYYCARDRGWADYWGQGTLVTVSSA
VL: EIVLTQSPGTLSLSPGERATLSCRTSQSISSSYLAWYQQKPGQVPRLLIYGASSRATGIPDRFSGSGSGTDFTLTISRLEPEDFAVYYCQQYGSSITFGQGTRLEIKR

Tests used:
[1] = molecular target: T1, cell membrane-bound GPNMB protein; assay: FACS analysis of anti-GPNMB antibody binding to melanoma cell lines; conditions: primary antibody 1 μg/mL
[2] = molecular target: T2, GPNMB; assay: Binning of antibodies (Luminex competitive binding); conditions: three bins of six anti-GPNMB antibodies
Protocol: Certain antibodies, described herein were binned in accordance with the protocol described in U.S. Patent Application Publication No. 20030157730. M×hIgG conjugated beads are prepared for coupling to primary antibody. The volume of supernatant needed is calculated using the following formula: (n+10)×50 μL (where n=total number of samples on plate). Where the concentration is known, 0.5 μg/mL is used. Bead stock is gently vortexed, then diluted in supernatant to a concentration of 2500 of each bead per well or 0.5×10^5/mL and incubated on a shaker in the dark at RT overnight, or 2 hours if at a known concentration of 0.5 μg/mL. Following aspiration, 50 μL of each bead is added to each well of filter plate, then washed once by adding 100 μL/well wash buffer and aspirating. Antigen and controls are added to filter plate 50 μL/well then covered and allowed to incubate in the dark for 1 hour on shaker. Following a wash step, a secondary unknown antibody is added at 50 μL/well using the same dilution (or concentration if known) as is used for the primary antibody. The plates are then incubated in the dark for 2 hours at RT on shaker followed by a wash step. Next, 50 μL/well biotinylated m×hIgG diluted 1:500 is added and allowed to incubate in the dark for 1 hour on shaker at RT. […] Following a wash step, each well is resuspended in 80 μL blocking buffer and read using Luminex. […]

[3] = molecular target: T3, GPNMB; assay: GPNMB immunohistochemistry (IHC) on human tissue microarrays; type: binding; conditions: normal and tumor human tissue microarrays (lung, ovarian, renal, esophagus, head & neck carcinomas, squamous cell carcinoma, melanomas, normal skin)
Protocol: Anti-GPNMB monoclonal antibodies were evaluated for reactivity with frozen and fixed tissue specimens. Tissue sections (5 μm) were cut from formalin fixed and paraffin embedded tissue samples and were rehydrated through incubations in xylene and a graded ethanol series terminating in PBS. Endogenous peroxidase activity was quenched in a 3% solution of hydrogen peroxide in methanol
Tissue sections were blocked in blocking buffer (5% BSA (Sigma), 1% goat serum (Jackson Immunolabs, West Grove, Pa.) in PBS) for 1 hour. Primary and secondary antibodies were precomplexed in 5% BSA and 1% goat serum in PBS for 1 hour at 37° C. at a molar ratio of approximately 10:1 of anti-GPNMB or control IgG to secondary biotinylated goat anti-human IgG (Jackson Immunolabs). Complexes were blocked with a 1:2000 dilution of human serum and incubated again for 1 hour at 37° C. Tissue sections were incubated with anti-GPNMB antibody or isotype control antibody complexes diluted in blocking buffer for 1 hour. Sections were washed in 3 changes of PBS for 5 to 10 minutes each and incubated with a 1:200 dilution of streptavidin conjugated horseradish peroxidase (Jackson Immunolabs) in blocking buffer for 30 minutes and then washed as before. Antibody was detected using DAB reagent (Vector labs). […]

[4] = molecular target: T2, GPNMB; assay: ELISA of hybridoma supernatants for binding to GPNMB
Protocol: After 14 days of culture, hybridoma supernatants were screened for GPNMB specific monoclonal antibodies. In the Primary screen, the ELISA plates (Fisher, Cat. No. 12-565-136) were coated with 50 μL/well of GPNMB (1 μg/mL) in Coating Buffer (0.1 M Carbonate Buffer, pH 9.6, NaHCO3 8.4 g/L), then incubated at 4° C. overnight. After incubation, the plates were washed with Washing Buffer (0.05% Tween 20 in PBS) three times. 200 μL/well Blocking Buffer (0.5% BSA, 0.1% Tween 20, 0.01% Thimerosal in 1×PBS) were added and the plates were incubated at room temperature for 1 h. After incubation, the plates were washed with Washing Buffer three times. Aliquots (50 μL/well) of hybridoma supernatants and positive and negative controls were added, and the plates were incubated at room temperature for 2 h. The positive control used throughout was serum from the relevant GPNMB immunized XenoMouse® mouse and the negative control was serum from the KLH-immunized relevant strain of XenoMouse® mouse. After incubation, the plates were washed three times with Washing Buffer. 100 μL/well of detection antibody goat anti-huIgGfc-HRP (Caltag, Cat. No. H10507, using concentration was 1:2000 dilution) was added and the plates were incubated at room temperature for 1 hour. After incubation, the plates were washed three times with Washing Buffer. 100 μl/well of TMB (BioFX Lab. Cat. No. TMSK-0100-01) was added, and the plates were allowed to develop for about 10 minutes (until negative control wells barely started to show color). 50 μl/well stop solution (TMB Stop Solution (BioFX Lab. Cat. No. STPR-0100-01) was then added and the plates were read on an ELISA plate reader at a wavelength of 450 nm.
Hybridoma supernatants were screened for binding to GPNMB by ELISA as described above in Example 2.

[5] = molecular target: T2, GPNMB; assay: BiaCore 2000 analysis of hybridoma supernatants binding to GPNMB; conditions: mAb captured on protein A; GPNMB at 880 nM; 1:1 kinetic model
Protocol: Certain Hybridoma cell supernatants (29) were analyzed for binding to GPNMB by BiaCore® 2000 biosensor equipped with a research-grade CM5 sensor chip. A 1:25 dilution of cell supernatant was passed over a protein A surface for 5 min followed by washing the surface for 10 mins. Subsequently, GPNMB was injected for 90 sec. over the surface at a concentration of 880 nM followed by dissociation. Double-referenced binding data were obtained by subtracting the signal from a control flow cell and subtracting the baseline drift of a buffer injected just prior to the antigen injection. GPNMB binding data for each mAb was normalized for the amount of mAb captured on each surface. Normalized, drift corrected responses were also measured. The sensorgrams were fit to a simple 1:1 kinetic model.

[6] = TK10 Cells (GPNMB negative control)

| Molecule | Geo Mean Ratio of anti-GPNMB Staining (relative to pK16) [1, 6] | Geo Mean Ratio of anti-GPNMB Staining (relative to pK16) ([1]; UACC-62 Cells) | bin [2] | IHC staining [3] | Avg OD ([4]; antibody at 12.3 ng/mL) | Avg OD ([4]; antibody at 37 ng/mL) | Avg OD ([4]; antibody at 111 ng/mL) | Avg OD ([4]; antibody at 333 ng/mL) | Avg OD ([4]; antibody at 1 μg/mL) | Avg OD ([4]; antibody at 3 μg/mL) | ka [5] | kd [5] |
| --- | --- | --- | --- | --- | --- | --- | --- | --- | --- | --- | --- | --- |
| B1 | I. 1.10 | H. 4.46 | Bin 1 | Positive staining | – | – | – | – | – | – | – | – |
| B2 | L. 0.98 | K. 1.24 | – | – | 0.049 | 0.094 | 0.199 | 0.356 | 0.499 | 0.763 | 9257 M⁻¹ s⁻¹ | 0.00089 s⁻¹ |
| B3 | – | – | – | – | – | – | – | – | – | – | 11842 M⁻¹ s⁻¹ | 0.00144 s⁻¹ |
| B4 | – | – | – | – | – | – | – | – | – | – | 3955 M⁻¹ s⁻¹ | 0.000466 s⁻¹ |
